Laboratory results as given in the supplement of paper PMC9732359.
± gives the uncertainty stated by the source.

Test: protein stability index of a GFP-peptide fusion (yeast GPS) (PSI 1-4); higher = more stable; sorted into four equal gates, so the index is relative within each strain
Outline: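 Yeast carrying a pooled library were grown to mid-log phase in leucine-free medium. Each library plasmid expresses Cherry and has a tiled 17-residue yeast protein peptide fused downstream of GFP. Cells were sorted into four equal gates by GFP/Cherry ratio, and plasmids from each gate were PCR-amplified, Illumina-sequenced and assigned to strains by barcode. Summing, across gates, the read frequency times the gate number gave each peptide's protein stability index.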

Row | Sequence | protein stability index (doa10∆) | protein stability index (pdr5∆) | protein stability index (san1∆) | protein stability index (ubr1∆)
1 | FEYVLYPSKTLKTDGVR [FAS2] | 2.42 ± 0.08 | 2.96 ± 0.069 | 2.26 ± 0.099 | 2.75 ± 0.081
2 | VPEMIGSVVGIYNGKAF [RPS15] | 1.27 ± 0.15 | 1.34 ± 0.074 | 1.66 ± 0.24 | 1.41 ± 0.072
3 | AILRQQQQMANNNGNPG [GAL11] | 2.77 ± 0.12 | 3.19 ± 0.13 | 2.7 ± 0.12 | 3.17 ± 0.05
4 | NDQALIKVLLRQNRRPE [RET1] | 1.83 ± 0.087 | 2.45 ± 0.094 | 3.01 ± 0.079 | 2.77 ± 0.059
5 | ISTYISTDELVGSPLTV [POP8] | 1.49 ± 0.13 | 2.6 ± 0.1 | 2.27 ± 0.16 | 2.2 ± 0.081
6 | GVVVLRDREPKEPVALI [RPN2] | 3.5 ± 0.1 | 3.21 ± 0.11 | 3.45 ± 0.076 | 3.41 ± 0.29
7 | QTTEGYDPKDALKNACN [RPB11] | 3.28 ± 0.26 | 3.28 ± 0.14 | 3.26 ± 0.082 | 3.35 ± 0.15
8 | YEFPIEGIEIYDRKKLP [RPC11] | 3.16 ± 0.14 | 3.01 ± 0.094 | 1.91 ± 0.14 | 3.3 ± 0.17
9 | MSLSVAEKSYLYDSLAS [RRP42] |  | 1.64 ± 0.18 |  | 
10 | EYSPEILQIREEIPSKS [RRP6] | 2.66 ± 0.068 | 2.79 ± 0.08 | 2.54 ± 0.072 | 2.88 ± 0.044
11 | LRLFNAPDSEYLCFILS [SNF2] | 2.28 ± 0.044 | 2.17 ± 0.044 | 2.15 ± 0.042 | 1.94 ± 0.031
12 | MGPLYQNFAEFMTKLLE [IRR1] | 2.27 ± 0.11 | 1.82 ± 0.11 | 3.03 ± 0.13 | 2.04 ± 0.15
13 | LPIESQFVSKLVDNLNA [BRR2] | 2.32 ± 0.052 | 2.34 ± 0.049 | 2.5 ± 0.072 | 2.4 ± 0.059
14 | WNRLTISVTDTEVERAK [COR1] | 3.19 ± 0.09 | 3.12 ± 0.076 | 3.08 ± 0.051 | 3.21 ± 0.085
15 | DGGYNAQLAKAKTELNE [SMC2] | 2.64 ± 0.092 | 1.94 ± 0.058 | 1.44 ± 0.072 | 1.5 ± 0.038
16 | VSLPEGSFKRVKPQYDE [BRR2] | 3.16 ± 0.15 | 3.09 ± 0.12 | 3.13 ± 0.11 | 2.95 ± 0.14
17 | GQGYRKVGIWPYFDYIF [YJL039C/NUP192] | 3.37 ± 0.14 | 3.21 ± 0.12 | 3.03 ± 0.12 | 2.62 ± 0.17
18 | KEVSSFLMGIFNSVVNL [MTR3] | 2.83 ± 0.057 | 2.91 ± 0.049 | 2.88 ± 0.056 | 3 ± 0.043
19 | QYVTQIEQEKQEQQEQD [PRE6] | 2.23 ± 0.064 | 1.93 ± 0.057 | 2.85 ± 0.058 | 1.9 ± 0.045
20 | GAHKFLDTYLPEDLNSL [SIR2] | 1.85 ± 0.071 | 1.88 ± 0.076 | 1.56 ± 0.13 | 1.81 ± 0.064
21 | DLALKMGVPIYGIVAMA [FAS2] | 1.85 ± 0.27 | 1.17 ± 0.093 | 1.36 ± 0.28 | 1.18 ± 0.078
22 | TGETYQRFVGHKSDVMS [ASC1] | 2.73 ± 0.14 | 3.09 ± 0.069 | 2.6 ± 0.096 | 2.94 ± 0.093
23 | VTTKDDLSGADIQAMCT [RPT2] | 3.15 ± 0.07 | 3.3 ± 0.09 | 3.28 ± 0.038 | 3.35 ± 0.06
24 | TSPQYIPSPLSSTKPPG [NUT1] | 2.51 ± 0.039 | 2.42 ± 0.034 | 2.4 ± 0.048 | 2.45 ± 0.029
25 | FRALGIIPDGEILEHIC [RPB2] | 2.43 ± 0.057 | 2.55 ± 0.12 | 2.46 ± 0.089 | 2.79 ± 0.047
26 | EETNVDIGVLEEYARRL [SMC4] |  | 3.36 ± 0.24 | 3.64 ± 0.072 | 3.48 ± 0.1
27 | NGAVGKREGKTRLLNIV [ISW2] | 3.27 ± 0.12 | 2.95 ± 0.11 | 3.03 ± 0.051 | 2.97 ± 0.088

Row | Sequence | protein stability index (doa10∆) | protein stability index (pdr5∆) | protein stability index (san1∆) | protein stability index (ubr1∆)
28 | KGKKGQKKRVVDPFTRK [RPS1A] | 3.25 ± 0.13 | 3.69 ± 0.18 | 3.19 ± 0.15 | 3.47 ± 0.056
29 | GNVVMDIGKGAETTFLQ [RPC53] | 3.26 ± 0.2 |  | 3.02 ± 0.22 | 3.29 ± 0.083
30 | FFRNKLKYHDFLRKATA [RPL16B] | 2.02 ± 0.085 | 2.48 ± 0.086 | 2.4 ± 0.079 | 2.23 ± 0.072
31 | AILLIINLTQTYGISVV [NUT1] | 1.53 ± 0.049 | 1.34 ± 0.043 | 1.7 ± 0.081 | 1.43 ± 0.04
32 | RHKNKHIQGFPTLGERL [DSN1] | 3.41 ± 0.091 | 3.64 ± 0.13 | 3.37 ± 0.06 | 3.44 ± 0.076
33 | AGTKITICIELKTVLHN [RGR1] | 1.18 ± 0.062 | 1.32 ± 0.07 | 1.39 ± 0.13 | 1.49 ± 0.09
34 | IQLLDENVGTRLLPINV [MED11] | 3.09 ± 0.16 | 2.86 ± 0.1 | 3.14 ± 0.066 | 3.16 ± 0.063
35 | NLSRYPKSGIDIFVYLT [MTR3] | 2.35 ± 0.049 | 1.97 ± 0.052 | 2.07 ± 0.079 | 2.27 ± 0.054
36 | ESESERKYDLFQNLELE [SMC2] | 3.37 ± 0.074 | 3.33 ± 0.077 | 3.35 ± 0.068 | 3.3 ± 0.072
37 | EISAAHNKLNITSDALE [SMC3] | 2.64 ± 0.17 |  | 2.58 ± 0.23 | 
38 | GIFEKAKAKAVTSKVRN [YMR153W/NUP53] | 2.24 ± 0.1 | 2.59 ± 0.26 | 2.51 ± 0.15 | 2.38 ± 0.085
39 | KPDSDIVALSSEEINQY [PRE6] | 3.12 ± 0.05 | 3.03 ± 0.047 | 3.185 ± 0.03 | 3.17 ± 0.034
40 | AFDKHMNLVLNECIEER [SMB1] | 2.06 ± 0.14 | 2.34 ± 0.19 | 2.68 ± 0.16 | 2.56 ± 0.051
41 | AETLCFTVNVLYPDSSS [RPN3] | 2.56 ± 0.055 | 2.69 ± 0.05 | 2.97 ± 0.052 | 2.87 ± 0.041
42 | RGTIPLLERYIGNLITR [PRP8] | 1.52 ± 0.055 | 1.55 ± 0.045 | 1.48 ± 0.08 | 1.6 ± 0.039
43 | LLVFRNADLDLDEMELH [YDL116W/NUP84] | 3.01 ± 0.074 | 2.45 ± 0.073 | 3.01 ± 0.054 | 2.73 ± 0.047
44 | DPFSIYGFSNKEYISRL [SNF5] | 1.89 ± 0.066 | 2.39 ± 0.15 | 2.69 ± 0.071 | 2.34 ± 0.075
45 | TPKITAAEKSFKPPKNK [SEC65] | 2.9 ± 0.28 | 3.14 ± 0.2 | 3.04 ± 0.12 | 3.14 ± 0.12
46 | ARKETYSSYIYKVLKQT [HTB1] | 2.89 ± 0.058 | 2.43 ± 0.048 | 1.97 ± 0.072 | 2.47 ± 0.037
47 | IQAVFCLTKFQDEEQTE [YCG1] | 2.23 ± 0.057 | 2.24 ± 0.062 | 2.64 ± 0.057 | 2.82 ± 0.06
48 | PLRMETIPILESDSKAT [DSN1] | 2.14 ± 0.062 | 2.54 ± 0.084 | 2.59 ± 0.14 | 2.27 ± 0.044
49 | EEKGWVPVTKLGRLVKA [RPS2] | 3.45 ± 0.086 | 3.44 ± 0.13 | 3.51 ± 0.072 | 3.48 ± 0.072
50 | SPKPYAVKYGLNHVVSL [RPL8B] | 1.96 ± 0.07 | 2.09 ± 0.069 | 2.09 ± 0.092 | 1.94 ± 0.046
51 | LPKLNLPKYQTIQYDPP [SNF5] | 2.53 ± 0.22 | 2.6 ± 0.11 | 2.31 ± 0.16 | 2.11 ± 0.084
52 | NNRWAENNYKKRLLGTA [RPS23A] | 2.37 ± 0.27 | 2.78 ± 0.16 |  | 
53 | STPNFGGNSNKSPPQFF [SIN4] | 2.88 ± 0.039 | 3.1 ± 0.043 | 2.89 ± 0.03 | 2.9 ± 0.032
54 | GTNNARLAQLLRQLASY [RPN1] | 3.17 ± 0.092 | 3.09 ± 0.083 | 3.21 ± 0.097 | 3.14 ± 0.096
